# Results from paper PMC12474298 (2025).
# Where no end group is shown, it is not given here.
# Experiments:
# Assay in all cases: FP
# [1] = target: IMPα1 minor site mutant E396R (human)
# [2] = target: IMPα1 major site mutant D192K (human)
# [3] = target: human importin α1 lacking the importin-β binding domain (hIMPα1ΔIBB) (human)
binder,measurement,setting,value
"ETKKRRRILE (not fully specified (N-terminus); also: FITC/Ahx-labelled, position not given here) [HaHV1 UL36h NLS peptide (residues 1491-1500), FITC/Ahx-labelled]",Kd,[1],1760 nM
same,Kd,[2],3550 nM
same,Kd,[3],362 nM
